Source: the DeepSol protein solubility set

experiment: soluble on expression in E. coli; label from the status in PepcDB or PDB records

Sequence | soluble on expression in E. coli
KDAVLVNSELKNIYMKDVINKTNMKITKKIGTQLIFNTNEKTRVWDDDNYNKVISSNVSPAQERRFKEEEEVDIYALIKSYSVICKEQYNYVDGGLIKTSDREKLDSTIYMNIFGEQIPLKEQSKYKITFQNKFVTFQEIDVRLRKSLMSDNRIKLYEHNSICKKGYWGIHYKDNTTKFTDLFTHPNYTDNETIDMSKVSHFDVYLNEEFSKN | soluble
MSLGCTNFIQVGTVLGAPNVFLIGDAREVGHQGYENILREAKKVLTFDLDEKLRGFKNIVVYPGTFDFEGIVKNLDSDAKITVDIAYDVNDADELSRVYGASHALAISTSSELFSSLALENLGPLLKACKTRSAKHLLLKENRGGSRLFDLESGESWEIPATLARTVNSVGVGDVYTAVFAALIDHGALTAALRGMQAATRYAQTTFPDDFKRDVQRDFKLTPDEVLSLGGVLLPWHDRPHFEIYLAAPDFSYMEKAEVDAAVEALLYHNFTVRRPVQDNGEACPGTPAEDLRSYYDRDVELLRRCSLVFAVPLNRDPGTLVEIGLAIAAGTPVVTYDPRQENNNTMVICGSDAYSDDLDQCLNSTFELLAKLREQAKEGHHHHHH | not soluble
MGSDKIHHHHHHMRREEMWKLINATIEPIDTETSSSHILSEQDVNESTSGVIFIHTVGVMPVTVNDLIEEGRCARTDLSYADVILASRPVEEERTPVVYLNPDMNDASFYLLENAREIVPADLAKDVLLDRIVRYKRVQRVVDAVIVTDDPHLRRLLERELTKNFETLSLYERAEVFLEQHVATRPYLLVFSSALPRADGLELLLRAKQETIVPFHAIMISMYNRERDHVLAIERGVDGIMTLPLKVEEFRAWVSRLEGVHG | not soluble
MSLFARQLQSLTASGIRTQQVRLASTEVSFHTKPCKLHKLDNGPNTSVTLNREDALKYYRDMQVIRRMESAAGNLYKEKKIRGFCHLYSGQEACAVGMKAAMTEGDAVITAYRCHGWTWLLGATVTEVLAELTGRVAGNVHGKGGSMHMYTKNFYGGNGIVGAQQPLGAGVALAMKYREQKNVCVTLYGDGAANQGQLFEATNMAKLWDLPVLFVCENNGFGMGTTAERSSASTEYYTRGDYVPGIWVDGMDILAVREATKWAKEYCDSGKGPLMMEMATYRYHGHSMSDPGTSYRTREEIQEVRKTRDPITGFKDRIITSSLATEEELKAIDKEVRKEVDEALKIATSDGVLPPEALYADIYHNTPAQEIRGATIDETIVQPFKTSADVLKSIGRA | not soluble
MGSDKIHHHHHHAATVKLTIIKSDLDMKASGGTGTVEFAATGTVTATVNADWCQVIEVADHKVSISVDANTGYPGRSAQIVLTDGVSTQQATILQEGAIWKYNRDATYFTLTDAAEEVPVEMSSNLPIQVSIPADASQWLSYEMTSDGFKFIAKENLTGKIRSAIVKVTTGIREIEYALLQYDIDDLLGQWTGVVKVVATAFGINQVLSLEENTQIVKNPGGNGYIFQLPMTRLLGATIVLAVTYQDGALVITTPQQQNYALSDGQGGVMYGSIITKTDDGLYLQGKIILSPVLMNDGQVALAYITDAYMSMGLFKGRVPSTANYAGLSIDFPAILMQYAE | not soluble
GPGSMSTTAYALVAEEKQYPLQVGKNVVGRSSVPVEGVSFINLESPLAAISRMQAFVDIGANGDAWISDCNSTNGTFLSISPGPGIRLEANRYYQLSPGCRIVFGDVVCTFETLSEAPPTPEHPAHLLTSHSRPTRKTESLGVVDALADSTATTTPARHPSKQLNAHRSNVPYLDESGSLLREPAASRETVATTKKTPRRERREPTAPSPPLKRAKVESAAPSSFLKVKTAATAKATTPARALAARPHVCLTGMDSDERVAVTKRVRELKGRVVDDITKANLLVVATPPVRTPKFIAAVARGIPVVSVDYICNRRAELDDARHHIVGLKTDQHTYTAAELKKVIYRKDASPLLQGVSFNIAALSSKTKSVAAEIISSSGGEVVSTKKGGGTALTDAQLDKLYDSILRGKVPDVL | not soluble
MSLADIIIHNGSLITFDEARPQAQALAIQGGMIAAVGSDAEILALAGPETRLIDAGGGTVLPGFIDSHVHLFGGSVELDCLSLYGVKGLDAMRAAIQPYAQANPDDALVFCVMADYDILGTGHTLTRHDLDSILADRPLAMFAPDHHTVWANTAALEATGLLQGGEVDAGSLIVLGEDGLANGELLEPGAYGPILGLTRHGGREMLGLTTGKDPEPPATPDQRARDKDVIARGLAHCAAQGITGLHLMDGNRYQLELLTELEAEGRLLCRCEVPFHMKGTDPVERMTAEAPAMRAAYRGDKVRCNHLKMFIDGVIESGTALMLRPYPGELGANDNTGDEVFTQEHFTACCVEADRLGFQIAVHAIGDAGVRRTIDAFEAARRANGTRDSRHRIEHIEVIHPDDIPRLAELDIVASLQPGHAPRGHVFPPGAVGQYLHPDQIVGAYAWQTIRETGARVVFSTDWPVIPVDVMPSLRAAIAPLDLGPDWPDQSQSLMDTLASYTRDNAWVEFNEDSKGRLKVGMAADIAVLSHDLTALAPDDITQAAAMVTIMDGAVTYQREGHHHHHH | soluble
MGSDKIHHHHHHMTPDQYCQEKAVQSGSSFYYSFLYLPPERRRAITALYAFCREVDDVVDECTEASVARVKLAWWRQEVAAIFDAGGNKPSHPVAQALAGVASTFNLTADRLNEIIDGMEMDLDYNRYADFDTLRHYCYHVASVVGLCSAEIFGYRNPKTLEYAQDLGLAFQLTNIIRDVGEDARRDRIYLPQDELARFGVSNEDILQSRETDNFRRLIEFQIDRAESYYANAFAALPEEDRKSQRSGIIMAAIYQALLKEIKADGCHVMRQRISLTPLRKLWIAWKTWMKG | not soluble
MAHHHHHHMAVLVKNYEASLVDMAVQDFIKLGIDGVYTTMKTVVSFEYIFNFTSHMRNLHKYSTNFLELQINDHNKECVTNILQNLTMENIRKSSSASIKAGFEFLNALNDDIKKKHFSENVNYMVMVTITWDIHGNSGVSPNEPFSILCYIKCLPKHGSHVQIDIMCGERKTPNIKYSNVFDVRNKMLKLKSEDSHEVVLYNEKEEITEGLTCNFFCFFNDTLYTANDELVLKGTMREQIIHICEEEGVKLKKEAISIRDVGRFEFCFICSTTRNIIPVKKIILCSENKAEFEKDVHHPVLVKLQQKLREAVEKKKEKYEAYVSAALGV | not soluble
MGSDKIHHHHHHMMERLIIDDSRFNFVPKVKTAYKAPPGLDEKLIMEISRAKDEPEWMLKHRLESLKVFNEWHNPRFGVDISGLDLGKIVSYIKPDAKKSTSWEEVPEEVKEAFDKLGIPEAERKYLAGVGAQLDSEIVYQNMKKELEKMGVIFLDMESAVREYPDLVKKYFMKLVPITDHKFAALHGAIWSGGTFLYVPAGVKIPMPLQAYFLMSNPGMGQFEHTIIVAEEGSEVTFIEGCSAPRYNIINLHAGMVEIYVKKGAKVKYLTIQNWSKNTYNLNTKRSIVDEEGSMTWVSGSLGSQKTMLYPMTILKGKGARAESMSITYAGPGQHMDTGSKVVHLAPYTSSIVSAKSISLGGGWAFYRGLLKITKEAVKSKASVECAALMLDNRSKSDTVPIIEVETDRADVGHEARIGRIGEDQIFYLMSRGLSEQEAKAMIVKGFVEPVVKELPFEYAVELNKLLELEIEKSIG | not soluble
MKMVTGAVASVLEDEATDTSDSEGSCGSEKDHFYSDDDAIEADSEGDAEPCDKENENDGESSVGTNMGWADAMAKVLNKKTPESKPTILVKNKKLEKEKEKLKQERLEKIKQRDKRLEWEMMCRVKPDVVQDKETERNLQRIATRGVVQLFNAVQKHQKNVDEKVKEAGSSMRKRAKLISTVSKKDFISVLRGMDGSTNETASSRKKPKAKQTEVKSEEGPGWTILRDDFMMGASMKDWDKESDGPDDSRPESASDSDT | not soluble
MGSDKIHHHHHHMEKKVLIVGISQKQKDFDYSMEELANLAAANNMEVVGEIRQNIDRENRATYVGKGKVDEIKGLAEMQDARLIIFNDELSPSQIRNLEEALELDVMDRTGLILAIFANRAKTKEAQLQVQIAKLQYELPRIFGQGEDMDQQSGKGGLSNRGSGEKKIETDRRTIKYQIRHLQKELDMLVDDREVRRRKRKKNEIPVVSLVGYTNAGKSTTMNGLVRAYSETAEKQVFEKDMLFATLETSVREIVLPDNKQFLLTDTVGFVSKLPHQLVKAFRSTLEEARDADLLIHVVDYSDPHYKTMMKTTEETLKAVGVEDVPVIYAYNKADLIEGEIYPKQTENTIVFSAREKESLEFLTEVIRKELFASYEKATFLIPFEAGNVVAYLNDHADVLATEYLENGTQIVAEVSPADLQKLAEYQVAE | not soluble
MGSDKIHHHHHHMGYLKTMVDVMTTEMNAIRCLIDEAGIEYESIVSEIANCEGKVIFMGVGKSAHIGKKLAATFASTGTPSFFVHATEAVHGDLGMIESKDITILISNSGNSMEVVNCIKYIKAIGSKTIAFTSNRNSVLAKECDYALIYPAKDEADHLNLAPTTSSTITLVLGDSIACALSKSSNFGSSDFYKYHPGGSLGEKLKTANNG | not soluble
MPKLHMFYLGGNAGRSNIEVHDIQFAVCDNYREAVPALKAAWFGDADKIHIDGWQIVEWADGYDIAVSETPKTKMPSEHAPRLYFANVGGYRAGQLAEAHAFGLFAAATPAEAKQKALQTLLTDSYVQQHKDNLKDVDNLLALDRIGNFHIRLTPNPHGKPAEIGFQGYLPI | not soluble
MSLILRWGIIGPGWIAERFVHSLKTYSRQQVVAVASRSQAKADRVAAEWGIPQAYGQVEEMLARPDIDAVYIATPHNHHFPDGMQALKAGKHVLIEKPFALNLGEGRELQAEAARQEKLALEAMWCDYAPKYDVIRQLLEDGALGDLHTLLADHGEYFTRDHRIFNADLAGGPMMDLGSYVTSFALMVGGMPQEIVARGSATAEGLNGQTSMLFSWQNGMQGLLNTTLFSNTPGGAVVAGRQATLTIDGQFYAPGGFTLAASQGGQVLRWEEPRNRYDQLFWQAEHFAWCIGQGLQDSPLRPLSRVLQNLQVMDEVRRQVGAVFNEEREGHHHHHH | not soluble
MGSDKIHHHHHHMKEIVEQNIFNEDLSQLLYSFIDSKETFSFAESSILHYVVFGGENLDVATRLGAGIEILILSSDIMDDLEDEDNHHALWMKINRSESLNAALSLYTVGLTSIYSLNNNPLIFKYVLKYVNEAMQGQHDDITNKSKTEDESLEVIRLKCGSLIALANVAGVLLATGEYNETVERYSYYKGIIAQISGDYYVLLSGNRSDIEKNKHTLIYLYLKRLFNDASEDLLYLISHKDLYYKSLLDKEKFQEKLIKAGVTQYISVLLEIYKQKCISAIEQLNLDKEKKELIKECLLSYTKGDTRCKT | not soluble
SVEDELALFDKSINEFWNKFKSTDTSCQMAGLRDTYKDSIKAFAEKLSVKLKEEERMVEMFLEYQNQISRQNKLIQEKKDNLLKLIAEVKGKKQELEVLTANIQDLKEEYSRKKETISTANKANAERLKRLQKSADLYKDRLGLEIRKIYGEKLQFIFTNIDPKNPESPFMFSLHLNEARDYEVSDSAPHLEGLAEFQENVRKTNNFSAFLANVRKAFTATVYN | soluble
MNKRMKMCPACQQGYLYHSKPKYLHDEIILCDECDAVWLKGMNIFYGEYEKDFYSYVPFMESQGITSECIWEGDLFDHPYYEDENSNDMD | not soluble
MSALGAPAPYLHHPTDSHSGRVSFLGSQPSAEVTAVAQLLKDLDRSTFRKLLKLVVGALHGKDCREAVQHLGASANLSEERLAVLLAGTHTLLQQALRLPPASLKPDAFQDELQELGIPQDMIGDLASLAFGSQRPLLDSVAQQQGSSLPRVSNFRWRVDVAISTSAQSRSLQPSVLMQLKLTDGSAHRFEVPIAKFQELRYSVALVLKEMAELERKCERKLQD | not soluble
MGSDKIHHHHHHMRKLIFIAFMVMSVCGYAQKYEVGTTTAVWKAPAAADFLHAKAIGVKYVEVAFNQCYRGVPVDEVIPRIKEMKAKIDSADIEVWSIHLPFSRTLDISVLDDRLRKENVDFMAEMIELCAMFQPTCLVLHPSSEPIADSIRAQRIANASESIAYLKKYADRIGAQLCIENLPRTCLGNTPEELMRIVGDIPDVKVCFDTNHYTKGTTEHFVAIVGSRIGTIHASDFDLVNECHWLPTQGNIKWGKLMQDLEKTGYKGVFMYEATKDHENNNVRPALERIAETFDKITDDYKTLK | not soluble
